Read-outs that look alike come from different tables or passages of the source. Blank lines part the entries; values can stand above or below the binder they belong to.
Key:
[1] = target: T1, human MUC16 (mucin 16), endogenously expressed on cells (human); experiment: FACS binding titration on PEO-1 (MUC16+) cells
T1 construct: Endogenous MUC16 on OVCAR-3 / OVCAR3-Luc / PEO-1 / HPAC cells; also called hMUC16

[2] = target: T1, human MUC16 (mucin 16), endogenously …; experiment: cell-based or functional assay
[3] = target: T1, human MUC16 (mucin 16), endogenously …; experiment: FACS binding titration on OVCAR3-Luc (MUC16+) cells
[4] = target: mouse CD3 (mouse, UniProt P22646 22-108); experiment: not described (statement in the pharmacokinetic example)
[5] = target: T1, human MUC16 (mucin 16), endogenously …; experiment: cell-based or functional assay; remark: listed apart in the source
[6] = target: T2, cynomolgus monkey CD3 on cynomolgus T cells (cynomolgus monkey, UniProt Q95LI5 22-198); experiment: FACS binding titration on cynomolgus T cells
T2 construct: whole, on cells; also called cynomolgus CD3

[7] = target: T3, soluble monomeric human MUC16, truncated format encompassing the last five SEA domains of Mucin-16 (human); experiment: SPR Biacore, antibody captured, soluble monomeric hMUC16.mmh injected, 25C
T3 construct: also called hMUC16.mmh; MUC16 "nub"
T3 chain: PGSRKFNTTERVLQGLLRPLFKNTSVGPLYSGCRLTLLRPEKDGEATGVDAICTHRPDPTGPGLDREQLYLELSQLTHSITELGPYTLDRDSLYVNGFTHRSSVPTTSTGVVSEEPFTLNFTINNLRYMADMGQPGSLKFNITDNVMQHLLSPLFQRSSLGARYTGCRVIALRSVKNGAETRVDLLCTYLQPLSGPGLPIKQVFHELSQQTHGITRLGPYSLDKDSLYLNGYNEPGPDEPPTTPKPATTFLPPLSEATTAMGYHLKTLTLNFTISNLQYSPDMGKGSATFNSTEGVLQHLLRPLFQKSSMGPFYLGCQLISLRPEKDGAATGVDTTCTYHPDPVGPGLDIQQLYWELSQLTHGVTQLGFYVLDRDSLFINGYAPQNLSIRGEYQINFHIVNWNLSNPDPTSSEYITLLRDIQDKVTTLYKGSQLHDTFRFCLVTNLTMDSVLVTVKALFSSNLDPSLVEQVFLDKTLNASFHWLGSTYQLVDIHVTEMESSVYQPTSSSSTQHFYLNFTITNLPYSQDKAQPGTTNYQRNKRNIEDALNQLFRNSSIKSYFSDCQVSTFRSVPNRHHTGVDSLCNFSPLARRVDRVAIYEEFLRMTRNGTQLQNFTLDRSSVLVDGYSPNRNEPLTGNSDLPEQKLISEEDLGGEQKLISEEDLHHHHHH

[8] = target: T1, human MUC16 (mucin 16), endogenously …; experiment: MSD electrochemiluminescence cell binding; RLU ratio OVCAR-3/SK-OV-3; Ab 1.9 nM
[9] = target: T1, human MUC16 (mucin 16), endogenously …; experiment: MSD electrochemiluminescence cell binding; RLU ratio OVCAR-3/SK-OV-3; Ab 16.7 nM; NS = Non-Specific, ratio <2.5-fold
[10] = target: T3, soluble monomeric human MUC16, …; experiment: SPR Biacore, antibody captured, soluble monomeric hMUC16.mmh injected, 25C
[11] = target: T2, cynomolgus monkey CD3 on cynomolgus T …; experiment: FACS titration of cynomolgus T cells
[12] = target: T4, human CD3 on cells (Jurkat cells, human T cells) (human, UniProt P07766 23-207; P04234 22-171); experiment: FACS titration of Jurkat cells
T4 construct: on cells CD3 is part of the TCR complex; also called hCD3

[13] = target: T4, human CD3 on cells (Jurkat cells, human …); experiment: cell-based or functional assay
[14] = target: T1, human MUC16 (mucin 16), endogenously …; experiment: cell-based or functional assay; remark: listed apart in the source
[15] = target: T4, human CD3 on cells (Jurkat cells, human …); experiment: cell-based or functional assay; remark: listed apart in the source
[16] = target: T4, human CD3 on cells (Jurkat cells, human …); experiment: FACS binding titration on Jurkat cells
[17] = target: T1, human MUC16 (mucin 16), endogenously …; experiment: FACS binding titration on OVCAR3 (MUC16+) cells
[18] = target: T4, human CD3 on cells (Jurkat cells, human …); experiment: FACS binding titration on Jurkat cells; remark: listed apart in the source
[19] = target: T4, human CD3 on cells (Jurkat cells, human …); experiment: cell-based or functional assay; remark: listed apart in the source
[20] = target: T3, soluble monomeric human MUC16, …; experiment: SPR Biacore, antibody captured, soluble monomeric hMUC16.mmh injected, 25C
[21] = target: T1, human MUC16 (mucin 16), endogenously …; experiment: MSD electrochemiluminescence cell binding; RLU ratio OVCAR-3/SK-OV-3; Ab 16.7 nM

T4 sequence (P07766 23-207 limits assumed, chain 1 of 2): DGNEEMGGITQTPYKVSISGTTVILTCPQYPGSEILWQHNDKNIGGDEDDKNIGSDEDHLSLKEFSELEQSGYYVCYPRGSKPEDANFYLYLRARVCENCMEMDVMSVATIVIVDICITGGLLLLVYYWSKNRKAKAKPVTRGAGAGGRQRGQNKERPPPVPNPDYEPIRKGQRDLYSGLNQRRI
T4 sequence (P04234 22-171 limits assumed, chain 2 of 2): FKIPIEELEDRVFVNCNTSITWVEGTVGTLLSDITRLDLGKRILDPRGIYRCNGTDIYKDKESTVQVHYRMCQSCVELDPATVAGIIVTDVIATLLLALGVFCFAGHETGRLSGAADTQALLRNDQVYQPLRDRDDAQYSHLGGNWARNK
T2 sequence (Q95LI5 22-198): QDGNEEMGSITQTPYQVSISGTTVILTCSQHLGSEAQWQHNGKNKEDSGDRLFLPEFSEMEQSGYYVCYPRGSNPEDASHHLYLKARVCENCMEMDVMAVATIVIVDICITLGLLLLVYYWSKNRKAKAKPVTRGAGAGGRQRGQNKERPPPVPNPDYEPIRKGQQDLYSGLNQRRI
Sequence of mouse CD3 (P22646 22-108): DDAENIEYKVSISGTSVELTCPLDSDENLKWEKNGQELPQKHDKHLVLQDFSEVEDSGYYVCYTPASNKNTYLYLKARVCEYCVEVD

EC50 [1]: 2.63 nM
PEO-1 cell depletion EC50 [2]: 0.0774 nM
EC50 [3]: 1.47 nM
binding result [4]: no binding
OVCAR3-Luc cell depletion EC50 [5]: 0.0516 nM
EC50 [6]: 1170 nM
Kd [7]: 6 nM
koff [7]: 0.000564 s⁻¹
kon [7]: 94100 M⁻¹ s⁻¹
t ½ [7]: 21 min
B1: BSMUC16/CD3-005 (bispecific antibody, V domains shown)
VH 1: QVQLVESGGGLVKPGGSLRLSCAASGFTFSNYYMSWVRQAPGKGLEWISYISGRGSTIFYADSVKGRITISRDNAKNSLFLQMNSLRAEDTAVYFCVKDRGGYSPYWGQGTLVTVSS
VH 2: EVQLVESGGGLVQPGRSLRLSCAASGFTFDDYSMHWVRQAPGKGLEWVSGISWNSGSIGYADSVKGRFTISRDNAKNSLYLQMNSLRAEDTALYYCAKYGSGYGKFYYYGMDVWGQGTTVTVSS
VL: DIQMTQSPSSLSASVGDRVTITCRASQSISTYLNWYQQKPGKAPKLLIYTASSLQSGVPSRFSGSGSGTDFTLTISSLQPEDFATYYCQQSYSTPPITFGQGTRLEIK
notes: Anti-MUC16 VH (H1H8767P), anti-CD3 VH (CD3-VH-G20), common light chain; also called REGN4019; anti-MUC16xCD3 bispecific antibody with CD3-VH-G20 arm

Ratio: anti-MUC16 Binding OVCAR-3/SK-OV-3 [8]: 4 ratio
Ratio: anti-MUC16 Binding OVCAR-3/SK-OV-3 [9]: < 2.5 ratio
Kd [10]: 3.58 nM
koff [10]: 0.000418 s⁻¹
kon [10]: 117000 M⁻¹ s⁻¹
t1/2 [10]: 28 min
B2: H1H8767P (antibody, human IgG1, V domains shown)
VH: QVQLVESGGGLVKPGGSLRLSCAASGFTFSNYYMSWVRQAPGKGLEWISYISGRGSTIFYADSVKGRITISRDNAKNSLFLQMNSLRAEDTAVYFCVKDRGGYSPYWGQGTLVTVSS
VL: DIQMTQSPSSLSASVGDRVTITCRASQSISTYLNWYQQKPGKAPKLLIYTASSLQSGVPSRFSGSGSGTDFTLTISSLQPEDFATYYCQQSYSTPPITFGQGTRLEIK
notes: Human IgG1 (H1H)

EC50 [11]: 1 to 40 nM
EC50 [12]: 1 to 40 nM
B3: CD3-VH-P (anti-CD3 antibody) (antibody, V domains shown)
VH: EVQLVESGGGLVQPGRSLRLSCVASGFTFDDYSMHWVRQAPGKGLEWVSGISWNSGSKDYADSVKGRFTISRDNAKNSLYLQMNSLRAEDTALYYCAKYGSGYGKFYHYGLDVWGQGTTVTVSS
VL: DIQMTQSPSSLSASVGDSVTITCRASQSINNYLNWYQQKPGKAPKLLIYTASSLLSGVPSRFSGSGSGTDFTLTISGLHPEDFATYFCQQSFSTPPITFGQGTRLDIK

T cell activation (CD69 upregulation) EC50 [13]: 0.0101 nM
OVCAR3 cell depletion EC50 [14]: 0.0306 nM
EC50 [1]: 3.13 nM
T cells activation (CD25 upregulation) EC50 [15]: 0.0889 nM
T cells activation (CD69 upregulation) EC50 [15]: 0.0134 nM
PEO-1 cell depletion EC50 [2]: 0.0675 nM
EC50 [16]: 301 nM
EC50 [17]: 2.69 nM
B4: BSMUC16/CD3-002 (bispecific antibody, V domains shown)
VH 1: QVQLVESGGGLVKPGGSLRLSCAASGFTFSNYYMSWVRQAPGKGLEWISYISGRGSTIFYADSVKGRITISRDNAKNSLFLQMNSLRAEDTAVYFCVKDRGGYSPYWGQGTLVTVSS
VH 2: EVQLVESGGGLVQPGRSLRLSCAASGFTFDDYSMHWVRQAPGKGLEWVSGISWNSGSIGYADSVKGRFTISRDNAKNSLYLQMNSLRAEDTALYYCAKDGSGYGKFYYYGMDVWGQGTTVTVSS
VL: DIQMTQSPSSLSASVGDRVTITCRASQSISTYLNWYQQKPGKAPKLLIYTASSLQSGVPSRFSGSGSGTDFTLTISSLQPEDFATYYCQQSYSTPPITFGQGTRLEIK
notes: Anti-MUC16 VH (H1H8767P), anti-CD3 VH (CD3-VH-G5), common light chain; also called anti-MUC16xCD3 bispecific antibody with CD3-VH-G5 arm
binding result [6]: no binding (tested: serial dilution from 66.6 nM to 0.001 nM)

T cell activation (CD69 upregulation) EC50 [13]: 0.00588 nM
OVCAR3 cell depletion EC50 [14]: 0.0224 nM
EC50 [1]: 3.02 nM
T cells activation (CD25 upregulation) EC50 [15]: 0.039 nM
T cells activation (CD69 upregulation) EC50 [15]: 0.00834 nM
PEO-1 cell depletion EC50 [2]: 0.0256 nM
EC50 [3]: 1.32 nM
EC50 [18]: 3.21 nM
EC50 [16]: 6.44 nM
binding result [4]: no binding
T cells activation (CD25 upregulation) EC50 [19]: 0.0306 nM
T cells activation (CD69 upregulation) EC50 [19]: 0.00298 nM
OVCAR3-Luc cell depletion EC50 [5]: 0.0154 nM
EC50 [6]: 15.6 nM
EC50 [17]: 1.2 nM
Kd [7]: 6.18 nM
koff [7]: 0.000586 s⁻¹
kon [7]: 94800 M⁻¹ s⁻¹
t ½ [7]: 20 min
B5: BSMUC16/CD3-001 (bispecific antibody, V domains shown)
VH 1: QVQLVESGGGLVKPGGSLRLSCAASGFTFSNYYMSWVRQAPGKGLEWISYISGRGSTIFYADSVKGRITISRDNAKNSLFLQMNSLRAEDTAVYFCVKDRGGYSPYWGQGTLVTVSS
VH 2: EVQLVESGGGLVQPGRSLRLSCAASGFTFDDYSMHWVRQAPGKGLEWVSGISWNSGSKGYADSVKGRFTISRDNAKNSLYLQMNSLRAEDTALYYCAKYGSGYGKFYHYGLDVWGQGTTVTVSS
VL: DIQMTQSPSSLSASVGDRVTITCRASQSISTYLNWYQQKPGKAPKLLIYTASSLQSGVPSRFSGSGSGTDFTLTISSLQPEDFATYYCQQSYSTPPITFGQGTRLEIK
notes: Anti-MUC16 VH (H1H8767P), anti-CD3 VH (CD3-VH-G), common light chain; also called anti-MUC16xCD3 bispecific antibody with CD3-VH-G arm

binding result [20]: no binding
Ratio: anti-MUC16 Binding OVCAR-3/SK-OV-3 [21]: 120 ratio
Ratio: anti-MUC16 Binding OVCAR-3/SK-OV-3 [8]: 153 ratio
B6: H1M9528N (antibody, mouse IgG1, V domains shown)
VH: QMQLQESGPGLVKPSETLSLTCTVSGGSISSYYWNWIRQPPGKGLEWIGYIYYSGNNFNPSLKSRVTISVDTSKNQFSLKLSSVTAADTAVYYCARAFHWNYEFDYWGQGTLVTVSS
VL: EIVLTQSPGTLSLSPGERATLSCRASQSVSNNYLAWYQQKPGQAPRLLLYGASSRTTDIPDRFSGSGSGTDFTLTISRLEPEDFAVYYCQQYDNSPLTFGGGTKVEIR
notes: Mouse IgG1 constant region (H1M)

binding result [20]: no binding
Ratio: anti-MUC16 Binding OVCAR-3/SK-OV-3 [21]: 99 ratio
Ratio: anti-MUC16 Binding OVCAR-3/SK-OV-3 [8]: 143 ratio
B7: H3M9529N (antibody, mouse IgG3, V domains shown)
VH: QVQLQQWGAGLLKPSETLSLTCAVYGGSFSGFYWSWIRQPPGKGLEWIGEINHSGSAKYNPSLKNRVIISIDTSKNQFSLKLDSVTAADTAVYNCARQGWNFAIFDYWGQGTLVDVSS
VL: DIVMTQSPDSLAVSLGGRATINCKSSQSVLHSSYNKDHLAWYQQRPGQPPKLLIYWASTRESGVPDRFSGSGSGTDFTLTISSLQAEDVAVYYCQQYNILPPTFGQGTRVEIK
notes: Mouse IgG3 constant region (H3M)

Ratio: anti-MUC16 Binding OVCAR-3/SK-OV-3 [8]: 4 ratio
Ratio: anti-MUC16 Binding OVCAR-3/SK-OV-3 [9]: < 2.5 ratio
Kd [10]: 52.4 nM
koff [10]: 0.000216 s⁻¹
kon [10]: 4120 M⁻¹ s⁻¹
t1/2 [10]: 54 min
B8: H1H8808P (antibody, human IgG1, V domains shown)
VH: QVQLVESGGGVVQPGRSLRLSCVASGFTFSNYGIHWVRQAPGKGLEWVAVISDDGSFKFYADSVKGRFTISRDNSKNTLYLQMNSLRVEDSAVYHCAKWQHNWNDGGFDYWGQGTLVTVSS
VL: EIVLTQSPDTLSLSPGERATLSCRASQSLSSNYLAWYRQKPGQAPRLLIYGISSRATGIPDRFSGSGSGTDFTLTISRLEPEDFAVYYCQQYGSSPWTFGQGTKVEIK
notes: Human IgG1 (H1H)

binding result [20]: no binding
Ratio: anti-MUC16 Binding OVCAR-3/SK-OV-3 [21]: 57 ratio
Ratio: anti-MUC16 Binding OVCAR-3/SK-OV-3 [8]: 81 ratio
B9: H3M9524N (antibody, mouse IgG3, V domains shown)
VH: QVQLQQWGAGLLKPSETLSLTCAVYGGSFSDYYWSWIRQPPGKGLEWIGEINHRGKTNYNPSLKSRVSISVDPSKNQFSLKLSSVTAADTAVYYCARQGWNYAIFDYWGQGILVPVSS
VL: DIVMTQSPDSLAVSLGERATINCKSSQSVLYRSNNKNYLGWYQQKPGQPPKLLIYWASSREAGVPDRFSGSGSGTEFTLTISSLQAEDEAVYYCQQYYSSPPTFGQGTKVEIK
notes: as for B7

binding result [20]: no binding
Ratio: anti-MUC16 Binding OVCAR-3/SK-OV-3 [21]: 51 ratio
Ratio: anti-MUC16 Binding OVCAR-3/SK-OV-3 [8]: 137 ratio
B10: H3M9525N (antibody, mouse IgG3, V domains shown)
VH: QVQLQQWGAGLLKPSETLSLTCAVYGGSFSGYYWSWIRQPPGKGLEWIGEINHSGKTTYSPSLKSRVTISVDTSKSQFSLKLSSVTAADTAVYYCARQGLNYAIFDYWGQGTLVTVSS
VL: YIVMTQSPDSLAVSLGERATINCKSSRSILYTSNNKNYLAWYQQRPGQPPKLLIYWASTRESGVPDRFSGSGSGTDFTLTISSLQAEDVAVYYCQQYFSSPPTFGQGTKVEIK
notes: as for B7

— US20180112001A1 (Regeneron, published 2018)
